Reference: patent publication US20240117054A1 (DRAGONFLY THERAPEUTICS, published 2024)

T1: human FLT3 (hFLT3) expressed on cells (human, UniProt P36888 27-993)
T1 construct: whole, on cells; One molecule for all cell lines that carry human FLT3; also called RMA-hFLT3; FLT3 on REH cells
T1 sequence (looked up): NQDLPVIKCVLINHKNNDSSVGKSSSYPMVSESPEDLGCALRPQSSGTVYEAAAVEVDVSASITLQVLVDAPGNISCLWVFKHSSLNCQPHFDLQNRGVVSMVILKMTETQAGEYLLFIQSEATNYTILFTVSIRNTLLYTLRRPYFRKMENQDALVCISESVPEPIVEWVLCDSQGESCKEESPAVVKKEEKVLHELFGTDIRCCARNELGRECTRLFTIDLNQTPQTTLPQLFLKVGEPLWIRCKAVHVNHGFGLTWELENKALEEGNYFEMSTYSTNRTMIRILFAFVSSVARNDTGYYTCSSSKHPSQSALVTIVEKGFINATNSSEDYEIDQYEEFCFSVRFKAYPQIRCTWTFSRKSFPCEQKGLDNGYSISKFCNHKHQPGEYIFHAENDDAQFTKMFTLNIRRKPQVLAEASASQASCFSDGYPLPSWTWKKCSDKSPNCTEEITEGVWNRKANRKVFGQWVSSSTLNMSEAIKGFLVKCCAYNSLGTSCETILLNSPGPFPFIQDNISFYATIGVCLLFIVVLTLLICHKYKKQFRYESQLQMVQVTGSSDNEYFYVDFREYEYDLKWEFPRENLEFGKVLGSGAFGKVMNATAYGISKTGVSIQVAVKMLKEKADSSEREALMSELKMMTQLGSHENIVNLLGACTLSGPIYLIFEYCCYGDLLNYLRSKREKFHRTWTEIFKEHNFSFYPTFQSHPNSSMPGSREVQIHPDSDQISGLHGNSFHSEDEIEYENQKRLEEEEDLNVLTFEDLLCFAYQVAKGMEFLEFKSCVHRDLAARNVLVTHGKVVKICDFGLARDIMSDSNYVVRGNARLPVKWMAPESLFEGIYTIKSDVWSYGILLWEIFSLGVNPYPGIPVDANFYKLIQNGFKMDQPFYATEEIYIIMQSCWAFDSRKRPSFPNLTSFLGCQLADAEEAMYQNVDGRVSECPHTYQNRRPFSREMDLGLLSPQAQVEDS

T2: cynomolgus monkey FLT3 (cFLT3) expressed on RMA cells (cynomolgus monkey, UniProt A0A2K5VQ48 27-993)
T2 construct: whole, on cells; also called RMA-cFLT3; cynomolgus FLT3
T2 sequence: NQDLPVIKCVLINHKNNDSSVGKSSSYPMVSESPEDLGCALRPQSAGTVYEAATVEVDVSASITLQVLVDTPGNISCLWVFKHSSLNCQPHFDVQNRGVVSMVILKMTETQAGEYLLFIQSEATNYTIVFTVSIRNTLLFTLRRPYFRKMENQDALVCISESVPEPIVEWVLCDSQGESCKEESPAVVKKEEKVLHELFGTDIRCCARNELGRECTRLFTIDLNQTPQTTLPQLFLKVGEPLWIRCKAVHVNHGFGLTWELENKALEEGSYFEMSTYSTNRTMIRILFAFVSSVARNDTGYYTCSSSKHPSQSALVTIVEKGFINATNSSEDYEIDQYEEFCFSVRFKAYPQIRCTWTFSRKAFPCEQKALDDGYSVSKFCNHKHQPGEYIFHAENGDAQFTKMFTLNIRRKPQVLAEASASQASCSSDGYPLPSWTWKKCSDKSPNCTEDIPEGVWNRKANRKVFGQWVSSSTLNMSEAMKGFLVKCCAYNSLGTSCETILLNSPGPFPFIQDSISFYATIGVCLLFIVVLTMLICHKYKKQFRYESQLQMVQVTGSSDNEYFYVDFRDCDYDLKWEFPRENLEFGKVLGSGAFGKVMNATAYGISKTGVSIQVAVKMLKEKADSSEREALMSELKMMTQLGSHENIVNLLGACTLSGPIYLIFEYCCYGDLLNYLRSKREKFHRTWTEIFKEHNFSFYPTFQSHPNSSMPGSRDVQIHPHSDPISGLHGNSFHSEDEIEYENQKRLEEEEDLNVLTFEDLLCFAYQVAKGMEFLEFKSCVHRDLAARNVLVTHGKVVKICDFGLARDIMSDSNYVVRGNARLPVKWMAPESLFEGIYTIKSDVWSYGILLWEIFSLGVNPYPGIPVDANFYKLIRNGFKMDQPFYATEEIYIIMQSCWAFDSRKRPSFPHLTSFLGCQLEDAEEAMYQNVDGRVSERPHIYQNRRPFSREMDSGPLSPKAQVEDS

T3: hFLT3-His fusion protein (human, UniProt P36888 27-541, limits assumed)
T3 construct: Soluble recombinant antigen used for immunisation, ELISA, SPR and BLI binning; also called recombinant hFLT3 protein; not shown: His tag
T3 sequence (looked up): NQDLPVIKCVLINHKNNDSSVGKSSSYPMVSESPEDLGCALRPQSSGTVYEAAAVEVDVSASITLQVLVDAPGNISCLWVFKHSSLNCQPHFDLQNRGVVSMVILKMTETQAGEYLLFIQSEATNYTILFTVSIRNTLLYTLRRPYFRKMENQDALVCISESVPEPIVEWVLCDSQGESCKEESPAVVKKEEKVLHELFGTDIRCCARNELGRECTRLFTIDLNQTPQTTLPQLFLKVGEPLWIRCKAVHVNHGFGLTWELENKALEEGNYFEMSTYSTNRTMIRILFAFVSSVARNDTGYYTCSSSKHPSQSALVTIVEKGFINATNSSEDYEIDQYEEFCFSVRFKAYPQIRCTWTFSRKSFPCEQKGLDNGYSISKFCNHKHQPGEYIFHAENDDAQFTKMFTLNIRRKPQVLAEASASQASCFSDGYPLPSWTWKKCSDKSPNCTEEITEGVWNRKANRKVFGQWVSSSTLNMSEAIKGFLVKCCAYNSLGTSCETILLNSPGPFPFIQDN

B1: 1A2.A3 (antibody, V domains shown)
VH: EVQLQESGPELVKPGASVKISCKASGYSFTGYYIHWVKQSPEESLEWIGEIYPNTGITTYNQKFTAKATLTVDKSSNTAYMQLKSLTSEDSAVYYCTRWGDYYGRDYWGQGTSVTVSS
VL: DIVLTQSPASLAVSLGQRATISCRASETVDTHGNSFMHWYQQKPGQPPKLLIYRASNLESGIPARFSGSGSRTDFTLTINPVEADDVATYYCQQSNEDPRTFGGGTKLEIK
notes: Purified murine mAb from a hybridoma subclone
B2: 4A4.A3 (antibody, V domains shown)
VH: QVTLKESGPGILQPSQTLSLTCSFSGFSLTTYGMGVGWIRQPSGKGLEWLANIWFNDNKYYNSTLKSRLTISKDTSNNQVFLKISSVDTTDTATYYCAQITTVVGTFDYWGQGSPLTVSP
VL: RIVMTQSPTTMAASPGEKITITCSASSSISSIYLHWYQQKPGFSPKLLIFRTSDLASGVPPRFGGSGSGTSYSLTIGTMEAEDVATYYCQQGSSFPRTFGGGTKLEIK
notes: as for B1
B3: 4H2.E3 (antibody, V domains shown)
VH: EVQLQESGPELVKPGASVKMSCKASGYTFTSYLMHWMKQKPGQGLEWIGYINPYSDGIKYNEKFRDKATLTSDKSSNTAYMELSSLTSEDSAVYYCAHSSGYVGYAMDYWGQGTSVTVSS
VL: GIVMTQTTPSVPVTPGESVSISCRSSKSLLHSNGNTYLYWFLQRPGQSPQLLIYRMSNLASGVPDRFSGSGSGTTFTLRISRVEAEDVGVYYCMQHLEYPFTFGSGTKLEIK
notes: as for B1
B4: 11F4.B9 (antibody, V domains shown)
VH: EVQLQESGPELVKPGASVKISCKASGYSFTGYYIHWVKQGPEKSLEWIGEIIPSTGSTIYNQKFKAKATLTVDKSSSTAYLQLKSLTSEDSAVYYCERWGDYYGRDYWGQGTSVTVSS
VL: DIVLTQSPASLAVSLGQRATISCRASESVDIYGNSFMHWYQQKPGQPPKLLIYRASNLESGIPARFSGSGSRTDFTLTINPVEADDVATYYCQQSNEDPRTFGGGTKLEIK
notes: as for B1
B5: 12H10.G7 (antibody, V domains shown)
VH: EVQLQESGPELVKPGASVKMSCKASGYTFTRYVMHWVKQRPGQGLEWIGFINPYNDDTKYNEKFKGKATLTSDKSSSTAYMELSSLTSEDSAVYHCARWRQLGSLDSWGQGTTLTVSS
VL: NIVLTQSPASLAVSLGQRATISCRASESVDTYGSSFVHWYQQKPGQPPKLLIYLASNLESGVPARFSGSGSRSDFTLTIDPVEADDAATYYCQQNNEEPWTFGGGTKLEIK
notes: as for B1
B6: 12C9.E5 (antibody, V domains shown)
VH: EVQLQESGAELVRPGASVKLSCKASGYIFTDYEIHWVKQTPVHGLEWIGAIDPETGITAYSQKFKGKATLTTDTSSSTAYMEFRSLTSEDSAVYYCTRGGLLYWGQGTSVTVSS
VL: DVVMTQTPLSLSVTIGQPASISCKSSQSLLYSDGETYLNWLQQRPGQSPKRLMYQVSKLDPGIPDRFSGSGSETDFTLKISRVEAEDLGIYYCLQGTFYPHTFGGGTKLEIK
notes: as for B1

What was measured:
[1] = target: T1, human FLT3 (hFLT3) expressed on cells; assay: flow cytometry, purified mAb on SEM cells
[2] = target: T2, cynomolgus monkey FLT3 (cFLT3) …; assay: flow cytometry, purified mAb on RMA-cFLT3 cells
hFLT3-His fusion protein = target: T3, hFLT3-His fusion protein; assay: SPR, purified murine subclone mAb, hFLT3-His
[3] = target: T1, human FLT3 (hFLT3) expressed on cells; assay: flow cytometry, purified mAb on RMA-hFLT3 cells

Row | Binder | EC50 [1] [nM] | Max MFI [1] [MFI] | EC50 [2] [nM] | Max MFI [2] [MFI] | Kd (hFLT3-His fusion protein) [nM] | koff (hFLT3-His fusion protein) [s⁻¹] | kon (hFLT3-His fusion protein) [M⁻¹ s⁻¹] | EC50 [3] [nM] | Max MFI [3] [MFI] | binding result [2]
1 | B1 | 5.47 | 1360 | 1.82 | 2830 | 8.5 | 0.00089 | 110000 | 0.8 | 499 | 
2 | B2 | 3.29 | 2350 | 1.07 | 5570 | 7.3 | 0.00082 | 110000 | 0.72 | 1020 | 
3 | B3 | 7.57 | 1510 | 1.56 | 3450 | 17.6 | 0.001 | 57000 | 0.66 | 696 | 
4 | B4 | 2.43 | 1140 | 1.23 | 2590 | 1.7 | 0.00025 | 150000 | 0.53 | 493 | 
5 | B5 | 3.2 | 2830 | 0.94 | 5260 | 5.4 | 0.00055 | 100000 | 0.36 | 1140 | 
6 | B6 |  |  |  |  | 18.7 | 0.00063 | 34000 |  |  | no binding
